The target in series [1] is FimG (Escherichia coli (uropathogenic)) (UniProt P08190). Kind of series: donor strand exchange (DSE) assay, SDS-PAGE of the SDS-stable subunit:subunit product; 20 °C; 500 nM usher complex (acceptor subunit last in FimD:FimC:...) and 5 μM chaperone:subunit complex (donor), one subunit labelled with Alexa 647; quenched with HCl (quench flow for the fast reactions); fitted to Eq. (1) with KinTek Explorer.

In series [2] the target is FimF (Escherichia coli (uropathogenic)) (UniProt P08189). The series is described as above.
Series [3] deals with FimH (Escherichia coli (uropathogenic)) (UniProt P08191). Described as above.
Series [4] concerns the target FimD:FimC:FimH complex (Escherichia coli (uropathogenic)) (UniProt P30130). Nature of the series: AUC; sedimentation velocity of purified FimD:FimC:FimH at the higher concentrations (> 1 μM, up to 4.3 μM); 20 °C, 42,000 rpm, absorbance optics; 50 mM Tris pH 8.0, 150 mM NaCl, 1 mM EDTA, 0.05% DDM; c(s) by SedFit; Kd of usher dimerisation (dimer to monomers) estimated by integrating the monomer and dimer peaks at 4.3 μM.

Series [5] deals with T1, FimF (Escherichia coli (uropathogenic), UniProt P08189 21-176).
T1 construct: also called unlabelled FimF; FimC:FimF (as chaperone complex)
T1 sequence: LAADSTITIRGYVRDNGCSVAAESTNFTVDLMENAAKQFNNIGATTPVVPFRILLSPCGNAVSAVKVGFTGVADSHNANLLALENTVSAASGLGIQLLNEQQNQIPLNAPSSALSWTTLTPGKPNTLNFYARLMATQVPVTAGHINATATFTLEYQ
Kind of series: donor strand exchange (DSE) assay, SDS-PAGE of the SDS-stable subunit:subunit product; 20 °C; FimD:FimC:FimH:FimG and FimC:FimF both unlabelled; silver staining and densitometry of the FimH:FimG:FimF product. The note with it: both partners purified.

Series [6] concerns the target FimF^Q99C[A647] (Escherichia coli (uropathogenic)). Nature of the series: donor strand exchange (DSE) assay, SDS-PAGE of the SDS-stable subunit:subunit product; 20 °C; 500 nM usher complex (acceptor subunit last in FimD:FimC:...) and 5 μM chaperone:subunit complex (donor), one subunit labelled with Alexa 647; quenched with HCl (quench flow for the fast reactions); fitted to Eq. (1) with KinTek Explorer.

Series [7] deals with the molecule itself. Nature of the series: donor strand exchange (DSE) assay, SDS-PAGE of the SDS-stable subunit:subunit product; spontaneous (non-usher mediated) formation of FimG polymers from FimC:FimG during the slow reactions.
In series [8] the target is T1, FimF. Kind of series: donor strand exchange (DSE) assay, SDS-PAGE of the SDS-stable subunit:subunit product; 20 °C; 500 nM usher complex (acceptor subunit last in FimD:FimC:...) and 5 μM chaperone:subunit complex (donor), one subunit labelled with Alexa 647; quenched with HCl (quench flow for the fast reactions); fitted to Eq. (1) with KinTek Explorer. The note with it: both partners purified.

Series [9] concerns the molecule itself. Kind of series: AUC; sedimentation velocity of FimD alone at 5 μM and 2 μM; 20 °C, 42,000 rpm; 50 mM Tris pH 8.0, 150 mM NaCl, 1 mM EDTA, 0.05% DDM; monomer to dimer.

Here are results for five molecules from PMC3650583, “Dissection of Pilus Tip Assembly by the FimD Usher Monomer” (Journal of Molecular Biology, 2013).

As to FimF^Q99C[A647] (natural protein), the kDSE (rate of donor strand exchange, 20 °C) in [1] amounted to 0.0527 s⁻¹; in series [2] it was 0.00598 s⁻¹; in series [3], 0.972 s⁻¹. In general, Kd refers to the constant that tells how readily two partners part at equilibrium. In the case of “FimD:FimC:FimH complex (from UniProt P30130;P31697;P08191)”, the Kd in [4] is 20 µM.

B1: FimG (natural protein)
chain: ADVTITVNGKVVAKPCTVSTTNATVDLGDLYSFSLMSAGAASAWHDVALELTNCPVGTSRVTASFSGAADSTGYYKNQGTAQNIQLELQDDSGNTLNTGATKTVQVDDSSQSAHFPLQVRALTVNGGATQGTIQAVISITYTYS
notes: also called unlabelled FimG; FimC:FimG (as chaperone complex)
For B1, the binding result (with FimF [5]; in [7]) was “binds” in each case. Further, in series [6], the kDSE (rate of donor strand exchange, 20 °C) was found to be 0.00543 s⁻¹.

B2: FimG^S92C[A647] (natural protein)
chain: ADVTITVNGKVVAKPCTVSTTNATVDLGDLYSFSLMSAGAASAWHDVALELTNCPVGTSRVTASFSGAADSTGYYKNQGTAQNIQLELQDDCGNTLNTGATKTVQVDDSSQSAHFPLQVRALTVNGGATQGTIQAVISITYTYS
modifications: fluorescent Alexa 647 label at position 92 (on S92C)
Consider B2, for which the binding result with FimF [8] is reported as “binds”.

B3: FimD usher (natural protein)
chain: DLYFNPRFLADDPQAVADLSRFENGQELPPGTYRVDIYLNNGYMATRDVTFNTGDSEQGIVPCLTRAQLASMGLNTASVAGMNLLADDACVPLTTMVQDATAHLDVGQQRLNLTIPQAFMSNRARGYIPPELWDPGINAGLLNYNFSGNSVQNRIGGNSHYAYLNLQSGLNIGAWRLRDNTTWSYNSSDRSSGSKNKWQHINTWLERDIIPLRSRLTLGDGYTQGDIFDGINFRGAQLASDDNMLPDSQRGFAPVIHGIARGTAQVTIKQNGYDIYNSTVPPGPFTINDIYAAGNSGDLQVTIKEADGSTQIFTVPYSSVPLLQREGHTRYSITAGEYRSGNAQQEKTRFFQSTLLHGLPAGWTIYGGTQLADRYRAFNFGIGKNMGALGALSVDMTQANSTLPDDSQHDGQSVRFLYNKSLNESGTNIQLVGYRYSTSGYFNFADTTYSRMNGYNIETQDGVIQVKPKFTDYYNLAYNKRGKLQLTVTQQLGRTSTLYLSGSHQTYWGTSNVDEQFQAGLNTAFEDINWTLSYSLTKNAWQKGRDQMLALNVNIPFSHWLRSDSKSQWRHASASYSMSHDLNGRMTNLAGVYGTLLEDNNLSYSVQTGYAGGGDGNSGSTGYATLNYRGGYGNANIGYSHSDDIKQLYYGVSGGVLAHANGVTLGQPLNDTVVLVKAPGAKDAKVENQTGVRTDWRGYAVLPYATEYRENRVALDTNTLADNVDLDNAVANVVPTRGAIVRAEFKARVGIKLLMTLTHNNKPLPFGAMVTSESSQSSGIVADNGQVYLSGMPLAGKVQVKWGEEENAHCVANYQLPPESQQQLLTQLSAECR
notes: also called apo FimD; the usher; source: in 0.05% DDM
The stoichiometry N is the number of molecules, sites or subunits per partner or assembly. In the case of B3, the “stoichiometry N” value in [9] came to 2.
